According to the nanobody polyreactivity screen of Harvey et al. (2022):

Test: yeast display, Sf9 membrane polyspecificity reagent, FACS + sequencing; frameworks hold sequencing errors
Outline: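 Galactose-induced (36–48 hours) yeast carrying a synthetic nanobody display library were exposed to 10% biotinylated, detergent-solubilized Sf9 membrane reagent at 4 °C for 1 hour. FACS followed streptavidin microbead enrichment, using low and high (top ~1%) gates for expression (anti-HA) and reagent binding (streptavidin). Colony PCR, MiSeq 2 × 250 sequencing and CDR-length filtering followed. Labels for polyreactivity reflect the gate of origin.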

| Sequence | polyreactivity (PSR sort gate) |
| --- | --- |
| QVQLLESGGGLVQAGGSLRLTCAASGRIFAYYAMAWYRQAPGKERELVAAITSGGSTYYADSVKGRFTISRDNAKNTVYLQMNILKPEDTAVYYCNAGYGQWSRGHWRLSSVPYYYWGQGTQVTVSS | high polyreactivity |
| QVQLLESGGGLVQAGGSLRLTCAASGSIFFYYAMAWYRQAPGKEMEFVAGITYSGGITYYADSVKGRFTISRDNEKNTVYLQMNSLKPEDTAVYYCDYGGGVYQYGYWGQGTLVTVSS | low polyreactivity |
| QVQLLESGGGLVQAGGSLRLTCAASGSIFVIYAMGWYRQAPGKVRELVAAIDSSDGSTYYADSVKGRFTISRDNAKNTVYLQMNSLKPEDTAVYYCAARRLYWGQGTQVTVSS | high polyreactivity |
| QVQLLESGGGLVQAGGSLRLTSPASVRISQIYAMGWYIQAPGTERVLVARITSTDSTYYADSVKGRFTISRDNAKNTVYLQMNSLKPEDTAVYYCAASWWSPYDYWGQGTQVTVSS | low polyreactivity |
| QVQLLESGGGLVQAGGSLSLSCMASGSILGDRMSWYRQAPGKEHELVATIYDGGITYYADSMKGRFTISRDNAKNTVYLQMNSLRPEDTAVYYCGASFEGYRYHVYCGQGTQVTVSS | low polyreactivity |
| QVQLLESGGGLVQAGRSLRLSCAASGNTFDEYVKGWYRQAPGKESELDASIDWSGGGTYYADSVKGRFTISRDNAKNTVYLQMNSLKPEDTAVFYCNADYFDYSRTRYDYWGQGTQVNVSS | low polyreactivity |
| QVQLLESGGGLVQAGRSLRLSCAASGRIFRYYAMGWYRQAPGKERELVAAISYSTGGTSTYADSVKGRFTISRDNAKTTVYLQMNSLKPEDTAVYYCAVRRQYRRAYSFSQSRYDYWGQGTQVTVSS | high polyreactivity |
| QVQLLESGGGLVQPGGILRLSCAASGSTFVRYAMGWYRQAPGKERELVAAISYRGGSTYYADSVKGLFTISRDNANNSVYLELYSLKPEDTAVYYCAAESRHVEGEYWGQGTQVTVSS | high polyreactivity |
| QVQLLESGGGLVQPGGSLRLSCAASGSIFDGYAMVWYRQAPGKERELVAAISSSGGSTYYADSVKGRYTISRDTAKNTVYLQMNSLQREDSAVYYCAARFPWRGGVKYSYYFQHDYWGQGTQVTVSS | high polyreactivity |
| QVQLLESGGGLVQSGGSLRLTCAASGFTFRGYAMGWYRQAPGKERELVAAISWNGGRTYADSVKGRFTITRDNAKYTVYLQMNSLKPEDTAVYYCNAVKFGATAYDYWGQGTQVTVSS | high polyreactivity |
| QVQLLESGGRLVQAGRSLRLSCAASGRTFGPYAMGWYRQAPGKEREFVAAISSRGGRTYYADSVKGRFTISRDNAKNTVYLQLNSLKPEDTAVYYCAAEYNYSNKYLYLFLQMDYWGQGSQVTVSS | low polyreactivity |
| QVQLLESGVGLVQAGGSLRLSCAASGFSFGAYTLGWYRQAPRKERELVAAIRGSGGSTYYADSVKGRFTISRDNAKNTVYFQINSLKPDDTAVYYCAKTLTYGFRRYDYWGQGTQVTVSS | high polyreactivity |
| QVQLLESGVGLVQAGGSLRLSCAASGSILYINALGWSRPAPGKARELVAAITYSGGSTYYADSVKGRFTISRDNAKKPVYLQMNSLKPEDTAVYYCAADAVVAGRYDGHAYWGQGTQVTVSS | low polyreactivity |
| QVQLLESGVGLVQEGGSLRLSCPASGRIFGSKAMGWYRQAPGKERELVAAITRGGSTNYADSVEGRFTISRDNAKNTVYLQMNSLKPEYTAVYYCAVRWYRKYNYWGQGTLVTVSS | high polyreactivity |
| QVQLLESRGGLVQAGGSLRLSCAASGRNFGRYTMGWYRQAPGKERELVAAISARGGSTYYADSVKGRFTISRDNAKNTVYLQMNSLKPEDTAVYYCNTVRVHGFPIDRIYDYWGQGTQVTVSS | high polyreactivity |
| QVQLLETGGGLVQAGGSLRLSCAASGNTIIRYAMGWYRQAPGTERELVAAISYSGGRSYYADSVKGRFTISRDNAKYTVYLLMNSLKPEDTEVYYCIAASRYGGDYWGQVTQVTVSS | low polyreactivity |
| QVQLPESGGGLVQAGGSLRLICAASGYISTFSSEMGWYRQAPGKERELVASIAPGCTTSYADSVKGRFTISRDNAKNTVYLQMNSLKPEDTAVYYCGVDYTVPASFGYWGQGTQVTVSS | high polyreactivity |
| QVQLQDSGGGLVQAGGSLRLNCATSGTIFVLWYMGCYRQAPGKERELVATINDGANTYYADSVKGRFTINRDNANSTVYLQMNSLQPEDSAVYYCSVYAIIVWGLGYWGQGTQVTVSS | high polyreactivity |
| QVQLQDSGSGLVQAGGSLRLSCAASGAIFPAYLMVSYRQAPGKERELVAGISYGSITYCADSVKGRFNISRDNAKNTVYLQMNSLKPEDTAVYYCAVWRPGGDEYYYWGQGTQVTVSS | low polyreactivity |
| QVQLQDTGGGLVQAGGSPRLSCAASDNIFPDSVMCWYRQAPGKERELVATIGFGATTNYADSVKGRFTISRDNAKITVYLQMNSLKPEDSAVYYCAADPLNYEYFCYWGQGTQVTVRS | low polyreactivity |
| QVQLQECGGGLVQAGGSLRLSCAASGHIFDADIMGWYRQAPGKERELVASVTDGGSTNYADSVKGRFTISRDNAKNTVYLQMNSLKPEATAVFYCAAIVYPDILTYFDYDYDYFYWGQGTQVTVGS | low polyreactivity |
| QVQLQECGGGLVQAGGSLRLTCAASGNIFHADIMGWYRQAPGKERELVARVTDGGSTNYADSVKGRLTISRDNAKNTVYLQMNSLKPEETAVYYCAAIVYPVILTYFDYDYDYFYWGQGTQVTVGS | low polyreactivity |

| Sequence | polyreactivity (PSR sort gate) |
| --- | --- |
| QVQLQEIGGGLVQAGRSLRLSCAASGSISRLDYMGWYRQASGKERELVAAIDNGSTTYYADSVKGRLTISRDNAKYTVYLQMNSLKPEDTAVYFCAAVRGRGGTHAYWGQGTQVTVSG | low polyreactivity |
| QVQLQERGGGLVQAGGSLRLGCEASGNISDDGYMGWYRQAPGKEREFVAAIAAGSNTNYADSVKGRFTISRDNAKNTVYLQMNSLKPVETAVFYCAVASYARVQYLYWGQGTQVTVYS | low polyreactivity |
| QVQLQERGGGLVQAGGSLRLSCAASCTIFRFRYMGGHRQAPGKERELVAGINGGTTTYYADSEIGRFTMSRDNAKNTLYLQMNSLKPDDTAVYNCAAGDSRLTYYDYWGQGTQVTVSS | low polyreactivity |
| QVQLQERGGGLVQAGGSLRLSCAASGSIFHYTQMGWYLQAPGKEREFVAAITDGANTNYADSVKGRFTISRDNAKNTVNLQMNSLIPEDTAVFYCATDYGYTDRVTSGFDYWGQGTQVTVSS | low polyreactivity |
| QVQLQERGGGLVQAGGSLRQRCAASRNISASSDLGWYHQAPGKEREFVASITSGGTTYYADSVKGRFTISRDNAKNTVYLQMNSLKPEDTAVYYCAVGDPADAEFGYWGKGTQVTVSS | low polyreactivity |
| QVQLQESAGARQPAPELRGERIYFWLLLMCWYRQAPGEERELVAGINDGASTNYADSVKGRFTISRDNARNTVYLKMNSLKPGDTAVYYCAVWQPVLIWFYYWGQGTHVTVSS | high polyreactivity |
| QVQLQESAGGLEQAGGSLRRICSARCNINSDASMGSYRQAPGKQREHAASTTKGSRTHDAESVKGRLTIRDNAKNTVYLQMNSLKPDDTAVCYSAVTYPYWGDYTYWGQGTQVTVSS | low polyreactivity |
| QVQLQESAVLVQAGGSLRLSCPASGSISGRNVMGRYRQAQAKQREFVASITDGSSTNYADSVKGRFTISRDNAKNTVYLQMNSLNPKDTAVYYCAAYAQRAKSFGYWGRGTQVTVSS | low polyreactivity |
| QVQLQESDGGLVQAGGSLRLSCAASGSISPQYYMGWYRQAPGKEREFVAISKGTTTYYADSVKGRLTISRVNAKNTVYLQMNSLKPEDTAVYCCAAVRWLQKVHAYWDQGTQVTVSS | low polyreactivity |
| QVQLQESGAGLVQAGGSLRLSCAASGSIIHLHIMCWYRQAPRKERESVAAISYGTSTYYADSVKGRFTICRDNAKNTVYLQMNSPKPDDTAVYYCAALFLVSKHHHYWGEGTQVTVSS | low polyreactivity |
| QVQLQESGDGLVQADGSLRLSCAASGYISGYYYMGWYRQQPGKERELVAGIDAFGSSTNYADCVKGRFTISRDNGKNTVYLQMISPKPDDTAVYYCAAVYDDWDYHWYWGQGTQVTVSS | low polyreactivity |
| QVQLQESGDGLVQAVGSLRLSCAASGYISGYYYMGWYRQAPGKERELVAGIDAFGSSTNYADCVKGRFTISRDNATHTVYLQMNSLKPEDTAVYYCAARPDGDRLFSYWGQGTQVTVSS | low polyreactivity |
| QVQLQESGGCVVQAGGSLRLSCAASGTISDSGLMGWYRQAPGKERELVAGISSGGITNYADSVKGRFTISRDNAKNTVYLQMNSLKPEDTAVYWGQGTQVTVSS | low polyreactivity |
| QVQLQESGGDLEQAGGSLRLSCTAIGTISDVRFMGWYRQAPGKERELVATISYVTITYYADSVKGRFTISRDSEKHRVSAHDEPETGRYRGVLLRYYWGLGTQVTVSS | low polyreactivity |
| QVQLQESGGGLLQAGGSLRLSCAASGTIFRFRYMGWHRQAPGKERELVAGINGGTTTYYADSVIGRFTISRDNAKNTVYLQMNSLKPDDTAVYNCAAGASRLTYYDYWGQGTQVTVSS | low polyreactivity |
| QVQLQESGGGLLQECGSQRLSCAASGSISEGQDMGWYRRAPGKEREFVAGIAPGATTYYADSVKGRFTISRDNAKNTVYLQMNSLNPEDTAVYYCAARYVTESDHDYWGQVTQVTVSS | low polyreactivity |
| QVQLQESGGGLVHAGGSLRLSCAASGTISFINMMGWYRQAPGRERELVASINFGANTNYADSVKGRFTISRDNAKNTVYLQMNSLKPEYTAVYYCAVYDFDAYSLYYWGQGTLVTVSS | high polyreactivity |
| QVQLQESGGGLVKAGGSLRLSCAASGSISNSAAMGWYRQAPGKERELVVSIGHGASSNYADSVKGRFTISRDNAKNTVYLQMNSLKPEDTAVYYCAAYPGFLDGFFYWGQSTQVTVSS | high polyreactivity |
| QVQLQESGGGLVKAGGTPRLSCAASYNIFPDSVMCWYRQAPGTERELVATIGFVATTNYADSVKGRFTISRDNAKNTLYLQMNSLNPEDTAVYYCAAVPLNYEYFCYWGEGTQVTVSS | low polyreactivity |
| QVQLQESGGGLVLAGGSLRLSCSASGNIYVYGYKGWYRQAPRKEREFVATIDPGTNTNYADSVKDRFSISRDNAKNSVYLQMKSLKPEDNAVYYCAVEAGSDWPYRYWGLGTQVTVSS | low polyreactivity |
| QVQLQESGGGLVQACGSQRLSCAASGSISEGQDMGRYRRAPRKEREFVAGIAPGATTYYADSVKGRFTISRDNAKNTVYLQMNSLKPEDTAVYYCAARSVTETDHDYWGQGTQVTVSS | low polyreactivity |
| QVQLQESGGGLVQACSSLRLSCAASGTIFYYIMGWYRQAPGKERELVATIDLGGGTNYADSVKGRFTISRDDAKNTVYLQMSSLKPEDTAEYYCAVYLYRLTFFYYWGQGNQVTVSS | high polyreactivity |
